T1: Human IL2Rγ extracellular domain expressed with a C-terminal mouse IgG2a Fc tag (human)
T1 construct: whole entry is the Fc-fused construct; also called hIL-2Rg-mFc
T1 chain: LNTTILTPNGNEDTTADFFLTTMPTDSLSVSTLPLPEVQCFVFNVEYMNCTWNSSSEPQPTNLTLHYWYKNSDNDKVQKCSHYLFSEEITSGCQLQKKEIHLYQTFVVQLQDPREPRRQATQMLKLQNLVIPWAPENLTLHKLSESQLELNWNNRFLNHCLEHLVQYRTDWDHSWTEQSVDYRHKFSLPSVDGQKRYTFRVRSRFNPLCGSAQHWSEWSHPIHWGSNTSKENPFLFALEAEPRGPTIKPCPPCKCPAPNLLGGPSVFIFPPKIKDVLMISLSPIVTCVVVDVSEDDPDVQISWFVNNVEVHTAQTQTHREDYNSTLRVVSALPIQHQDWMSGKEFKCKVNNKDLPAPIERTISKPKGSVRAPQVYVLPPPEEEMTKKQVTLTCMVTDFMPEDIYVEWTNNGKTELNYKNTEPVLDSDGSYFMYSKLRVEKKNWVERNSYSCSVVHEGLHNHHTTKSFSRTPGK

T2: Mouse IL2Rγ extracellular domain expressed with a C-terminal myc-myc-hexahistidine tag (mouse)
T2 construct: whole entry is the tagged construct; also called mIL-2Rg-MMH
T2 chain: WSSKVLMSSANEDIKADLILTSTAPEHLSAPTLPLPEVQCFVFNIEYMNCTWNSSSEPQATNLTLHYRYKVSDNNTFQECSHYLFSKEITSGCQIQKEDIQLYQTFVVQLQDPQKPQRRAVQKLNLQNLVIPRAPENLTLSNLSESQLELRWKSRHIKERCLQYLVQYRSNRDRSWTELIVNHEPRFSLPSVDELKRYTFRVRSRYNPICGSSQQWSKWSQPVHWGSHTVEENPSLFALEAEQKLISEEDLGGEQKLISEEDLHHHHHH

T3: Rat IL2Rγ extracellular domain expressed with a C-terminal myc-myc-hexahistidine tag (rat)
T3 construct: whole entry is the tagged construct; also called rIL-2Rg-MMH; rat IL-2Rg-MMH
T3 chain: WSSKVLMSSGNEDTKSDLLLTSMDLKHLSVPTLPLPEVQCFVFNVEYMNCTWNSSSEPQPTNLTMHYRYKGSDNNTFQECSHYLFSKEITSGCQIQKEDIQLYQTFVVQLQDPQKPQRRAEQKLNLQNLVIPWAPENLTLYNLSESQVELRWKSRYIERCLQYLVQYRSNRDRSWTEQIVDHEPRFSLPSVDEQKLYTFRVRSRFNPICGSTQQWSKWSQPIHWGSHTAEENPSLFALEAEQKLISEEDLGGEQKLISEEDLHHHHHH

T4: Macaca fascicularis IL2Rγ extracellular domain expressed with a C-terminal myc-myc-hexahistidine tag (Macaca fascicularis)
T4 construct: whole entry is the tagged construct; also called mfIL-2Rg-MMH
T4 chain: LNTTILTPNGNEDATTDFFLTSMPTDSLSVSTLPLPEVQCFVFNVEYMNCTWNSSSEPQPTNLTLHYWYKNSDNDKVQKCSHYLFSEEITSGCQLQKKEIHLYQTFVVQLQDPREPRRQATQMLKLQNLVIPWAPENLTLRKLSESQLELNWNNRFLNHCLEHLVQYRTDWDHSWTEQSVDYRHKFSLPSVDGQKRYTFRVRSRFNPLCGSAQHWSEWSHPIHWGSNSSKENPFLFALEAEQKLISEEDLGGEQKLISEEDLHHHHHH


Columns and labels:
[1] = biological target: T1, Human IL2Rγ extracellular domain …; assay: SPR Biacore 4000, anti-hFc-captured mAb, 25 C
Protocol: (§1) Equilibrium dissociation constants (KD values) for IL-2Rγ binding to purified anti-IL2Rγ monoclonal antibodies were determined using a Biacore 4000 instrument equipped with a real-time surface plasmon resonance biosensor. All binding studies were performed in 10 mM HEPES, 150 mM NaCl, 3 mM EDTA, and 0.05% v/v Surfactant Tween-20, pH 7.4 (HBS-ET) running buffer at 25° C. and 37° C. The Biacore sensor surface was first derivatized by amine coupling with a monoclonal mouse anti-human Fc antibody (GE, # BR-1008-39) to capture anti-IL2Rγ monoclonal antibodies.
(§2) The dissociation of monoclonal antibody bound IL2Rγ reagents were monitored for 8-10 minutes in HBS-ET running buffer. Kinetic association (kₐ) and dissociation (kd) rate constants were determined by fitting the real-time sensorgrams to a 1:1 binding model using Scrubber 2.0c curve fitting software. Binding dissociation equilibrium constants (KD) and dissociative half-lives (t_{1/2}) were calculated from the kinetic rate constants as: […]

[2] = biological target: T2, Mouse IL2Rγ extracellular domain …; assay: SPR Biacore 4000, anti-hFc-captured mAb, 25 C
Protocol: as §1, §2

[3] = biological target: T3, Rat IL2Rγ extracellular domain …; assay: SPR Biacore 4000, anti-hFc-captured mAb, 25 C
Protocol: as §1, §2

[4] = biological target: T1, Human IL2Rγ extracellular domain …; assay: SPR Biacore 4000, anti-hFc-captured mAb, 37 C
Protocol: as §1, §2

[5] = biological target: T2, Mouse IL2Rγ extracellular domain …; assay: SPR Biacore 4000, anti-hFc-captured mAb, 37 C
Protocol: as §1, §2

[6] = biological target: T3, Rat IL2Rγ extracellular domain …; assay: SPR Biacore 4000, anti-hFc-captured mAb, 37 C
Protocol: as §1, §2

[7] = biological target: T4, Macaca fascicularis IL2Rγ extracellular …; assay: SPR Biacore 4000, anti-hFc-captured mAb, 37 C
Protocol: as §1, §2

| 50 nM Ag Bound [1] [RU] | Kd [1] [nM] | koff [1] [s⁻¹] | kon [1] [M⁻¹ s⁻¹] | t1/2 [1] [min] | 100 nM Ag Bound [2] [RU] | binding result [2] | 100 nM Ag Bound [3] [RU] | binding result [3] | 50 nM Ag Bound [4] [RU] | Kd [4] [nM] | koff [4] [s⁻¹] | kon [4] [M⁻¹ s⁻¹] | t1/2 [4] [min] | 100 nM Ag Bound [5] [RU] | 100 nM Ag Bound [6] [RU] | 100 nM Ag Bound [7] [RU] | Kd [7] [nM] | koff [7] [s⁻¹] | kon [7] [M⁻¹ s⁻¹] | Binder | other results |
| --- | --- | --- | --- | --- | --- | --- | --- | --- | --- | --- | --- | --- | --- | --- | --- | --- | --- | --- | --- | --- | --- |
| 46 | 5.21 | 0.000962 | 185000 | 12 | 0 | no binding (tested: 100 nM) | 2 | no binding (tested: 100 nM) | 11 | 16 | 0.00326 | 204000 | 4 | 0 | 2 |  |  |  |  | H4H12926P2 (antibody, human IgG4 S228P, kappa, V domains shown, fully human anti-IL2Rgamma mAb, human IgG4 Fc) VH: QVQLQQSGPGLVKPSQTLSLTCAISGDSVSSNIAAWNWIRLSPSRGLEWLGRTFFRSTWFYDYSLSVKGRITINPDTSKNQFSLHLNSVTPEDAAVYYCARTGRRWSLDYWGQGTLVTVSS VL: not shown |  |
| 112 | 0.113 | 4.02e-05 | 355000 | 287 | 2 | no binding (tested: 100 nM) | 4 | no binding (tested: 100 nM) | 85 | 0.0554 | 2.69e-05 | 486000 | 429 | 1 | 4 | 59 | 16.1 | 0.00321 | 200000 | H4H12884P (antibody, human IgG4 S228P, kappa, V domains shown, fully human anti-IL2Rgamma mAb, human IgG4 Fc) VH: QVQLQESGPGLVKPSQTLSLTCTVSGGSISSGGYYWSWIRQHPGKGLEWIGFIYYSGKTYYNPSLKSRLTISVDTSKSQFSLKLRSVTAADTAVYYCARLGYTNSAGWFDPWGQGTLVTVSS VL: DIQMTQSPSSLSASVGDRVTITCRASQSISSYLNWYQQKPGKAPNLLIYAASSLQSGVPSRFSGSGSGTDFTLTISSLQPEDLATYYCQQSYTTPFTFGPGTKVDIKR | t1/2 [7]: 4 min |
|  |  |  |  |  | 1 | no binding (tested: 100 nM) | 0 | no binding (tested: 100 nM) |  |  |  |  |  | 1 | 0 | 20 | 14 | 0.00131 | 93600 | H4H12890P (antibody, human IgG4 S228P, kappa, V domains shown, fully human anti-IL2Rgamma mAb, human IgG4 Fc) VH: EVQLVESGGGLVQPGGSLRLSCAASGFTFNNYAMHWVRQAPGKGLEYVSSISSSGGSTYYEDSVKGRFTISRDNSKNTLYLQMGSLRAEDMAVYYCARSFYGSGTYYDTFDMWGQGTMVTVSS VL: DIQMTQSPSSLSASIGDRVTITCRASQSISRYLNWYQQKPGKAPKLLIYAASSLQSGVPSRFSASGSGTDFTLTISSLQPEDFATYYCQQSYSTPFTFGQGTKLEIKR | t1/2 [7]: 9 min |
| 103 | 0.144 | 5.22e-05 | 363000 | 221 | 0 |  | 1 | no binding (tested: 100 nM) | 81 | 0.0505 | 2.39e-05 | 473000 | 484 | -1 | 1 | 55 | 12.7 | 0.00261 | 206000 | H4H12871P (antibody, human IgG4 S228P, kappa, V domains shown, fully human anti-IL2Rgamma mAb, human IgG4 Fc; also called REGN9434) VH: QVQLQESGPGLVKPSQTLSLTCTVSGGSITSGGYYWSWIRQYPGQGLEWIGYIYYSGKTYYNPSFTSRITISVDTSKKQFSLKMSSVTAADTAVYYCARAGFTSSNGWFDPWGQGTLVTVSS VL: DIQMTQSPSSLSASVGDRVTITCRASQNIRSYLNWYQQKPGKAPKLLIYSASSLQSGVPSRFSGSGSGTDFTLTISSLQPEDFPTYYCQQTYSSPWTFGPGTKVEIKR | t1/2 [7]: 4 min |

From patent publication US20200247894A1 (Regeneron, published 2020)
